Laboratory results published in CN104974246A (INST PASTEUR SHANGHAI CAS, dated 2015).

Key:
Experiment in all cases: cell-based or functional assay
[1] = molecular target: T1, HCV 2a亚型 JFH1 毒株的 E2蛋白 (on virus) (hepatitis C virus subtype 2a, strain …, UniProt Q99IB8 384-750)
T1 sequence: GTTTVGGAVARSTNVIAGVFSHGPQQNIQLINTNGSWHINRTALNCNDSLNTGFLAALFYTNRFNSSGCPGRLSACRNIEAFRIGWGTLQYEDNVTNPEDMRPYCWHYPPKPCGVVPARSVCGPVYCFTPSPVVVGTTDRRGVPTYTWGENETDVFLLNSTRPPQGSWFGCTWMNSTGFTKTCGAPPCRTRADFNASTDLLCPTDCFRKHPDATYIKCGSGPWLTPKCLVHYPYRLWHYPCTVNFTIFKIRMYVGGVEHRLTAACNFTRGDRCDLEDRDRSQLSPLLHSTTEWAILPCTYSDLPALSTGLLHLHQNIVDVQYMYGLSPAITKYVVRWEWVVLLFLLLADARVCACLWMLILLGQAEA

[2] = molecular target: HCV 1b亚型 PR79 毒株的 E2蛋白 (on virus) (hepatitis C virus subtype 1b, strain …)
[3] = molecular target: HCV 2a亚型 PR79 毒株的 E2蛋白 (on virus) (hepatitis C virus subtype 2a, strain …)
[4] = molecular target: HCV 1b亚型 PR52B6M 毒株的 E2蛋白 (on virus) (hepatitis C virus subtype 1b, strain …)

Measured: 对 HCV真病毒的抑制率 (真病毒中和试验)

B1: 全人单克隆抗体7F2 (antibody, V domains shown)
VH: QVQLQQWGAGLLKPSETLSLTCAVYGGSFSGYYWNWIRQPPGKGLEWIGEINPRGTANHNPSLKSRVTISVGTSRNQFSLKLRAVTAADTAVYYCARGIHDTLTGYLAFYFDYWGQGTPVTVSS
VL: DIQMTQSPSSLSASVGDTVTITCRASQNIDRHLNWYQQKAGKAPKVLIYAASGLQSGVSSRFSGSGSGTEFTLTINDLEPEDFATYYCQQYYDTLGYTFGQGTKVEIK
> 90%: [1] | [2] | [3] | [4]
